Tests used:
[1] = target: T1, SARS-CoV-2 spike receptor-binding domain (RBD) (SARS-CoV-2, UniProt P0DTC2, biotinylated for BLI (site not stated); covalently coupled to MagPlex beads by EDC/sNHS in the bead assays); assay: BLI; settings: both partners purified
[2] = target: T1, SARS-CoV-2 spike receptor-binding …; assay: bead-based multiplex ACE2 competi; settings: both partners purified

B1: nanobody NM1226 (VHH)
VHH: QVQLVESGGGSVQPGGSLRLSCLGSGSLDYYAIGWFRQAPGKEREGVSCIASSGDRTIYADSVKGRFTISRDYGKNTVYLQMNSLKPEDTAMYYCAALQGSYYYTGFVANEYDYWGQGAPVTVSS
- Kd [1]: 3.66 nM
- IC50 [2]: 0.82 nM

Reference: PMC8097376 (EMBO Reports, 2021)
